{"source": "patent US20260250398A1", "target": "FZD/LRP", "assay": "cell-based or functional assay", "data": [{"substance": "Wnt3a, recombinantly produced ligand", "values": [{"measurement": "TOPFLASH % Wnt Maxima", "result": 100, "unit": "% Wnt Maxima"}, {"measurement": "TOPFLASH EC50", "result": 6, "unit": "nM"}]}]}
